This data set concerns the molecule itself. Nature of the data set: SEC; analytical size exclusion chromatography of recombinant CDH26A, 'in cell lysates'; details in the Supplementary Information. A general note: In gel filtration, larger molecules generally elute earlier.

B1: full-length recombinant CDH26A (cadherin-26, transcript variant A) (natural protein, human, UniProt Q8IXH8-4 28-832, looked up)
chain: DSVQQETDDLTKQTKEKIYQPLRRSKRRWVITTLELEEEDPGPFPKLIGELFNNMSYNMSLMYLISGPGVDEYPEIGLFSLEDHENGRIYVHRPVDREMTPSFTVYFDVVERSTGKIVDTSLIFNIRISDVNDHAPQFPEKEFNITVQENQSAGQPIFQMLAVDLDEENTPNSQVLYFLISQTPLLKESGFRVDRLSGEIRLSGCLDYETAPQFTLLIRARDCGEPSLSSTTTVHVDVQEGNNHRPAFTQENYKVQIPEGRASQGVLRLLVQDRDSPFTSAWRAKFNILHGNEEGHFDISTDPETNEGILNVIKPLDYETRPAQSLIIVVENEERLVFCERGKLQPPRKAAASATVSVQVTDANDPPAFHPQSFIVNKEEGARPGTLLGTFNAMDPDSQIRYELVHDPANWVSVDKNSGVVITVEPIDRESPHVNNSFYVIIIHAVDDGFPPQTATGTLMLFLSDINDNVPTLRPRSRYMEVCESAVHEPLHIEAEDPDLEPFSDPFTFELDNTWGNAEDTWKLGRNWGQSVELLTLRSLPRGNYLVPLFIGDKQGLSQKQTVHVRICPCASGLTCVELADAEVGLHVGALFPVCAAFVALAVALLFLLRCYFVLEPKRHGCSVSNDEGHQTLVMYNAESKGTSAQTWSDVEGQRPALLICTAAAGPTQGVKDLEEVPPSAASQSAQARCALGSWGYGKPFEPRSVKNIHSTPAYPDATMHRQLLAPVEGRMAETLNQKLHVANVLEDDPGYLPHVYSEEGECGGAPSLSSLASLEQELQPDLLDSLGSKATPFEEIYSESGVPS
notes: cadherin-26 (CDH26), human, product of transcript variant A (NM_177980; 18 exons; predicted protein molecular weight 92.4 kDa); full-length recombinant protein; also called rCDH26A; source: purified by the University of North Carolina Protein Expression and Purification Core Facility; for the analytical SEC 'in cell lysates'
For the protein B1, the binding result is given as “binds”.

(Values after paper PMC5809386, “Cadherin-26 (CDH26) regulates airway epithelial cell cytoskeletal structure and polarity” (Cell Discovery, 2018).)
